Measurements taken from US7026443.
Where two headings read alike, the source gives them in different places.

Assays:
HLA-A*0301 (human) [1] = assay: competition with a 125I-labelled standard peptide for purified HLA-A*0301, bound and free separated by gel filtration
HLA-B*5401 (human) [2] = assay: competition with 125I-labeled standard peptide for purified HLA, gel filtration
HLA-B*3501 (human) [3] = assay: as above
HLA-B*0702 (human) [4] = assay: as above
HLA-B*5101 (human) [5] = assay: as above
HLA-B*5301 (human) [6] = assay: as above
HLA-A*0201 (human) [7] = assay: competition against 125I-labelled standard peptide on purified HLA-A*0201, gel filtration
HLA-A*0301 (human) [8] = assay: competition with 125I-labeled standard probe peptide for purified HLA-A*0301, gel filtration
HLA-A*1101 (human) [9] = assay: competition with 125I-labeled standard probe peptide for purified HLA-A*1101, gel filtration
HLA-A*1101 (human) [10] = biological target: HLA-A*1101 (human)
HLA-A*0301 (human) [11] = assay: competition with 125I-labeled standard peptide for purified HLA, gel filtration
HLA-A*1101 (human) [12] = assay: as above
HLA-A*0301 (human) [13] = assay: competition with 125I-labelled standard probe peptide for purified HLA-A*0301, gel filtration
HLA-A*0201 (human) [14] = assay: competition with 125I-labeled standard probe peptide for purified HLA-A*0201, gel filtration
HLA-A*3101 (human) = assay: competition with 125I-labelled standard peptide for purified HLA, gel filtration
HLA-A*6801 (human) = assay: as above
HLA-A*0301 (human) [15] = assay: as above
HLA-A*1101 (human) [16] = assay: as above
HLA-B*3501 (human) [17] = biological target: HLA-B*3501 (human)
HLA-B*5101 (human) [18] = biological target: HLA-B*5101 (human)
HLA-B*5301 (human) [19] = biological target: HLA-B*5301 (human)
HLA-B*5401 (human) [20] = biological target: HLA-B*5401 (human)
HLA-B*0702 (human) [21] = biological target: HLA-B*0702 (human)

IHDIILECVY (modifications not checked) [… (HPV16 E6, position 30, 10 amino acids)]
relative binding ratio (IC50 of standard peptide / IC50 of test peptide) (HLA-A*0101 (human)): 0.028

EGTGCNGWFY (modifications not checked) [HPV18 E1 peptide … (position 10, 10 amino acids)]
relative binding ratio (IC50 of standard peptide / IC50 of test peptide) (ratio to standard peptide) (HLA-A*0301 (human) [1]): 0.0005

DPQERPRKL (modifications not checked) [HPV16 E6 11 …]
binding affinity ratio (IC50 of standard peptide / IC50 of test peptide) (HLA-B*5401 (human) [2]): 0.0002
binding affinity ratio (IC50 of standard peptide / IC50 of test peptide) (HLA-B*3501 (human) [3]): 0.0001
binding affinity ratio (IC50 of standard peptide / IC50 of test peptide) (HLA-B*0702 (human) [4]): 0.0001
binding affinity ratio (IC50 of standard peptide / IC50 of test peptide) (HLA-B*5101 (human) [5]): 0.0001
binding affinity ratio (IC50 of standard peptide / IC50 of test peptide) (HLA-B*5301 (human) [6]): 0.0001

KLLSKLLCV (modifications not checked) [HPV16 E1 292 …]
relative binding ratio (IC50 of standard peptide / IC50 of test peptide) (HLA-A*0201 (human) [7]): 0.051

WLQPLADAK (modifications not checked) [HPV31 E1 489 peptide … (SEQ ID NO: 34685)]
relative binding ratio (IC50 of standard peptide / IC50 of test peptide) (HLA-A*0301 (human) [8]): 0.0005

GVLILALLR (modifications not checked) [HPV45 E1 265 … (SEQ ID NO: 43630)]
relative binding ratio (IC50 of standard peptide / IC50 of test peptide) (HLA-A*1101 (human) [9]): 0.14

KISEYRHYCY (modifications not checked) [… (HPV16 E6, position 79, 10 amino acids)]
relative binding ratio (IC50 of standard peptide / IC50 of test peptide) (HLA-A*0101 (human)): 0.009
binding affinity ratio (IC50 of standard peptide / IC50 of test peptide) (ratio to standard peptide) (HLA-A*1101 (human) [10]): 0.0038

NINAGTDSR (modifications not checked) [HPV16 E1 peptide … (position 567, 9 amino acids)]
binding affinity ratio (IC50 of the standard peptide / IC50 of the test peptide) (HLA-A*0301 (human) [8]): 0.0005
relative binding ratio (IC50 of standard peptide / IC50 of test peptide) (HLA-A*0301 (human) [11]): 0.0005
relative binding ratio (IC50 of standard peptide / IC50 of test peptide) (HLA-A*1101 (human) [12]): 0.0002

EGTGCNGWF (modifications not checked) [HPV45 E1 peptide … (position 10, 9 amino acids)]
binding affinity ratio (IC50 of standard peptide / IC50 of test peptide) (ratio to standard peptide) (HLA-A*0301 (human) [13]): 0.0008

STLRLCVQST (modifications not checked) [HPV31 E7 peptide … (position 63, 10 amino acids)]
relative binding ratio (IC50 of standard peptide / IC50 of test peptide) (HLA-A*0201 (human) [14]): 0.0012

GTGCNGWFYV (modifications not checked) [HPV31 E1 peptide … (position 11, 10 amino acids)]
relative binding ratio (IC50 of standard peptide / IC50 of test peptide) (ratio to standard peptide) (HLA-A*0201 (human) [14]): 0.0006

YAVCDKCLK (modifications not checked) [HPV16 E6 peptide …]
binding affinity ratio (IC50 of standard peptide / IC50 of test peptide) (HLA-A*3101 (human)): 0.0015
binding affinity ratio (IC50 of standard peptide / IC50 of test peptide) (HLA-A*6801 (human)): 0.012
binding affinity ratio (IC50 of standard peptide / IC50 of test peptide) (HLA-A*0301 (human) [15]): 0.0003
binding affinity ratio (IC50 of standard peptide / IC50 of test peptide) (HLA-A*1101 (human) [16]): 0.001

LLCVSPMCM (modifications not checked) [HPV16 E1 297 …]
relative binding ratio (IC50 of standard peptide / IC50 of test peptide) (HLA-A*0201 (human) [7]): 0.0008

TLRLCVQST (modifications not checked) [HPV31 E7 peptide … (position 64, 9 amino acids)]
relative binding ratio (IC50 of standard peptide / IC50 of test peptide) (HLA-A*0201 (human) [14]): 0.0061

QPPKLRSSV (modifications not checked) [HPV18 E1 315 peptide …]
binding affinity ratio (IC50 of standard peptide / IC50 of test peptide) (HLA-B*3501 (human) [17]): 0.0003
binding affinity ratio (IC50 of standard peptide / IC50 of test peptide) (HLA-B*5101 (human) [18]): 0.0002
binding affinity ratio (IC50 of standard peptide / IC50 of test peptide) (HLA-B*5301 (human) [19]): 0.0002

WLQPLADAK (modifications not checked) [HPV31 E1 489 peptide … (SEQ ID NO: 41921)]
relative binding ratio (IC50 of standard peptide / IC50 of test peptide) (HLA-A*1101 (human) [9]): 0.0002

WPYLESRITV (modifications not checked) [HPV18 E1 583 peptide …]
binding affinity ratio (IC50 of standard peptide / IC50 of test peptide) (HLA-B*5401 (human) [20]): 0.024
binding affinity ratio (IC50 of standard peptide / IC50 of test peptide) (HLA-B*3501 (human) [17]): 0.0066
binding affinity ratio (IC50 of standard peptide / IC50 of test peptide) (HLA-B*0702 (human) [21]): 0.0067
binding affinity ratio (IC50 of standard peptide / IC50 of test peptide) (HLA-B*5101 (human) [18]): 0.055
binding affinity ratio (IC50 of standard peptide / IC50 of test peptide) (HLA-B*5301 (human) [19]): 0.014

RPIVQFLRY (modifications not checked) [HPV18 E1 447 peptide …]
binding affinity ratio (IC50 of standard peptide / IC50 of test peptide) (HLA-B*3501 (human) [17]): 0.04
binding affinity ratio (IC50 of standard peptide / IC50 of test peptide) (HLA-B*0702 (human) [21]): 0.0033
binding affinity ratio (IC50 of standard peptide / IC50 of test peptide) (HLA-B*5301 (human) [19]): 0.023
